Data: patent US20250011468A1

B1: 224F3 (anti-FIXa reference antibody, Scheiflinger et al.) (antibody, from another filing, human IgG1, V domains shown)
VH: QVQMQQSGAELVKPGASVKLSCKASGYTFTSQDINWVRQRPEQGLEWIGWIFPGDGSTKYNEKLKGKATLTTDKSSSTAFMQLSRLTSEDSAVYFCARSAYYRYDGSYYYAMDYWGQGTSVTVSS
VL: QIVLTQSPAIMSASLGEEITLTCSASSSVSYMLWYQQKSGTSPKLLIYTTSNLASGVPSRFSGTGSGTFYSLTISSVEAEDAADYYCHQWSSYPRTFGGGTKLEIKR
B2: mAb1-1582 (monovalent one-armed version of the anti-FIXa antibody 224F3) (antibody, from another filing, V domains shown)
VH: B1 VH
VL: B1 VL

Biological target: human plasma-derived FIXa (Haematologic Technologies Inc) (human) (UniProt P00740)
Sequence (P00740 47-191, chain 1 of 2): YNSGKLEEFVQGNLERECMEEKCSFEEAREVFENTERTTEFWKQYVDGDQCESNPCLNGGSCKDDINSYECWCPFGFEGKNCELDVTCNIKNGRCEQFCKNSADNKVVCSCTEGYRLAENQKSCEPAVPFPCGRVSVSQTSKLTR
Sequence (P00740 227-461, chain 2 of 2): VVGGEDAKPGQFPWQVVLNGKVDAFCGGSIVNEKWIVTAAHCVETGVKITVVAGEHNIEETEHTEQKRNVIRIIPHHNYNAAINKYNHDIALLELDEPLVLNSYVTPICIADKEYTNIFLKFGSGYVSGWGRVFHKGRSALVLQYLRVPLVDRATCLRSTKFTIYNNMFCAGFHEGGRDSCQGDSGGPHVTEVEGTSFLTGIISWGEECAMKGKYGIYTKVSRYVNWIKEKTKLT
Test: cell-based or functional assay

FXa generation rate at 3.2 nM mAb [pM/min] | FXa generation rate at 6.3 nM mAb [pM/min] | FXa generation rate at 12.5 nM mAb [pM/min] | FXa generation rate at 25 nM mAb [pM/min] | FXa generation rate at 50 nM mAb [pM/min] | FXa generation rate at 100 nM mAb [pM/min] | FXa generation rate at 200 nM mAb [pM/min] | Peak stimulatory activity relative to 224F3 (fold relative to 224F3) | Stimulation index at 3260 nM OA antibody [fold] | Binder
20 | 17.4 | 14.7 | 9 | 9 | 7.2 | 5.5 | 1 |  | B1
 |  |  |  |  |  |  |  | < 10 | B2
